One molecule from PMC8829827, “Dynamics of Cations around DNA and Protein as Revealed by 23Na Diffusion NMR Spectroscopy” can be followed below.

This data set addresses Antp homeodomain (C39S) (fruit fly, UniProt P02833 297-356, C335S). As to the kind of experiment: 23Na diffusion NMR (Na+ release on complex formation); 1.10 mM protein, 1.52 mM DNA; 14.7 +/- 1.7 Na+ released per complex; sodium succinate buffer (20 mM Na+, 11.3 mM succinate), pH 5.8, 25 C. The note with it: protein: recombinant; blunt.

Sequence of Antp homeodomain (C39S) (P02833 297-356 C335S): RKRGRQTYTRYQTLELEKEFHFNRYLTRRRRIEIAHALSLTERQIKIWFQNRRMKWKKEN

B1: 15-bp DNA duplex with Antp recognition sequence (dsDNA)
DNA 1: AGAAAGCCATTAGAG
DNA 2: CTCTAATGGCTTTCT
As to B1, the binding result is reported as “binds”.
